Here are results for 4 molecules from patent US9618524B2, “Method, composition, isolation and identification of a plaque particle and related biomarker” (Plaxgen Inc., priority 2012, dated 2017).

Assay in all cases: Mass spectroscopy proteomics, semi-quantitative binding affinity of serum proteins (plaqueproteome, Table 2)
Conditions in all cases: higher number = stronger affinity

For test [1], the target named is T1, alpha-synuclein plaque particles (Homo sapiens, UniProt P37840).
T1 construct: 140 amino acids polypeptide
As for the experimental part: To prepare oligomers/aggregates of human alpha-synuclein (140 amino acids polypeptide), 1 mg of the recombinant alpha-synuclein protein was suspended in 1 mL of PBS and the sample was incubated at 37° C. for 2 hrs. After incubation, all the samples were centrifuged for 5 min. at 5000 rpm to remove precipitate, if any, and the supernatant containing oligomers/aggregates were used in vitro plaque particles formation assay. For detecting alpha-synuclein plaque particles Thioflavin S (Ex/Em=430 nm/550 nm) amyloid binding fluorescent dye (10 μg) was used.
Similarly, to isolate alpha-synuclein plaque particles, diluted plasma or serum samples obtained from AD subjects were used for incubation with alpha-synuclein plaque oligomers/aggregates. Each assay was performed in 1 mL reaction (800 μL of 50% plasma or serum) and 200 μL (30 μg) of the alpha-synuclein aggregates and the mixtures were incubated at 37° C. for 1 hr. To the mixture Thioflavin S dye (120 μg) was added and the sample was incubated for additional 30 min at 37° C. After the incubation, the mixture was directly used for sample acquisition using flow cytometer (FACS ARIA II, BD Biosciences, San Jose, Calif.). After initial detection of alpha-synuclein plaque particles, gates were drawn in the acquisition blot to separately sort and isolate fluorescently labeled alpha-synuclein particles.
(§1) For preparing trypsin digested peptide sequences, the isolated plaque particles were centrifuged at 10000 rpm for 5 min and the pellet containing plaque particles was resuspended in 100 μl PBS buffer. Stock solutions of digestion buffer (Ammonium Biocarbonate 50 mM), reducing buffer (DDT 100 mM) and alkylation buffer (lodoaceamide 100 mM) were prepared and stored at −20° C. for up to two months. For trypsin digestion, 100 μl of each plaque particles (2000 of Abeta-42, cholesterol, Tau and alpha-synuclein) were precipitated using cold acetone −80° C. by adding 4X's the volume. The samples were placed on dry ice for 10 min with intermittent vortex. Next, the samples were centrifuged at 4° C. at 10000 G for 10 min. Top layer of acetone was carefully removed from the tube with care not to disturb the plaque particles pellet. The samples were speed-vac for 10 min to ensure all acetone has been boiled away. The plaque particles pellet were reconstituted with 15 μl 8M Urea 100 mM Ammonium bicarbonate stock and 20 μl protease max solution. The protease max solution (Promega, Madison, Wis.) was prepared from stock by adding 60 μl 50 mM Ammonium bicarbonate and used for 3 solution digests (20 μl each). […] The tubes were incubated at 55° C. for 30 minutes. The tubes were then removed and brought to the room temperature followed by addition of 3.2 μl of 1M acrylamide and incubated at room temperature for 30 minutes. To the sample, 63 μL of 50 mM Ammonium bicarbonate was added for a final volume of 98 μl and 2 μl of trypsin (10 μg, Trypsin/Lys C Mix). After mixing the solution with pipet the samples were incubated at 37° C. overnight. After the overnight digest, the tryptic digest were quenched and acidified by adding 10 μl of 50% formic acid/water stock dilution. The samples were centrifuged at 10000 G for 2 minutes and purified using stage tip and used for MS/Mass analysis.
(§2) All MS/MS samples were analyzed using Sequest (Thermo Fisher Scientific, San Jose, Calif., USA; version 1.0). Sequest was set up to search the SUMS_uniprot_Human database (35847 entries) assuming the digestion enzyme strict trypsin. Sequest was searched with a fragment ion mass tolerance of 1.00 Da and a parent ion tolerance of 20 PPM. Propionamide of cysteine was specified in Sequest as a fixed modification. Oxidation of methionine and phospho of serine, threonine and tyrosine were specified in Sequest as variable modifications.
Scaffold (version Scaffold_4.2.1, Proteome Software Inc., Portland, Oreg.) was used to validate MS/MS based peptide and protein identifications.

In test [2] the target is T2, Abeta-42 plaque particles (Homo sapiens, UniProt P05067).
T2 construct: Abeta 1-42
As for the experimental part:
Next to isolate serum derived Abeta-42 plaque particles, the plasma or serum samples obtained from AD subjects were first centrifuged at 5,000 rpm for 5 min and the supernatants were transferred to new centrifuge tubes. Next, the supernatants were diluted in PBS to make 50% of the serum and plasma samples and used for incubation with Abeta-42 plaque oligomers/aggregates. Each assay was performed in 1 mL reaction (800 μL of 50% plasma or serum) and 200 μL (30 μg) of the Abeta-42 aggregates and the mixtures were incubated at 37° C. for 1 hr. To the mixture Thioflavin S dye (120 μg) was added and the sample was incubated for additional 30 min at 37° C. After the incubation, the mixture was directly used for sample acquisition using flow cytometer (FACS ARIA II, BD Biosciences, San Jose, Calif.). After initial detection of Abeta-42 plaque particles in the acquisition blot, gates were drawn in fluorescent dot blot to separately sort and isolate fluorescently labeled Abeta-42 particles.
as §1, §2
Scaffold (version Scaffold_4.2.1, Proteome Software Inc., Portland, Oreg.) was used to validate MS/MS based peptide and protein identifications. […] Protein probabilities were assigned by the Protein Prophet algorithm (Nesvizhskii, Al et al 2003). […] Proteins sharing significant peptide evidence were grouped into clusters. Proteins were annotated with GO terms from NCBI (downloaded Jan. 17, 2014).

Test [3] concerns Low density cholesterol (Chl small) plaque particles. The arrangement: species or system human. The procedure:
(§3) The goal was to isolate plaque particles synthesized in the bio-fluids in a relatively pure form to enable their subsequent use for identification of components that contribute to the plaque formation. In order to isolate cholesterol plaque particles, the plasma or serum samples obtained from atherosclerotic subjects were first centrifuged at 5,000 rpm for 5 min and the supernatants were transferred to new centrifuge tubes. Next, the supernatants were diluted in PBS to make 50% of the serum and used for incubation with cholesterol oligomers/aggregates. Each assay was performed in 1 mL reaction (800 μL of 50% plasma or serum) and 200 μL (30 μg) of the Cholesterol aggregates and the mixtures were incubated at 37° C. for 1 hr After the incubation, the mixture was directly used for sample acquisition using flow cytometer (FACS ARIA II, BD Biosciences, San Jose, Calif.). […] In order to isolate these fractions, three sets of gates were drawn in the acquisition blot to separately sort and isolate High density or high complex cholesterol particles, Low density or low complex cholesterol particles and both High and low density cholesterol particles together.
as §1, §2
(§4) Scaffold (version Scaffold_4.2.1, Proteome Software Inc., Portland, Oreg.) was used to validate MS/MS based peptide and protein identifications. […] Protein probabilities were assigned by the Protein Prophet algorithm (Nesvizhskii, Al et al 2003).

The test system of test [4] is High Density cholesterol (Chl Large) plaque particles. On the set-up: species or system human. As for the experimental part: as §3, §1, §2, §4
In another test the test system is Tau plaque particles. On the set-up: species or system human. The procedure:
For Tau-74 (74-102) (Exon 3/Insert 2 domain) preparation, 1 mg of Tau-74 was suspended in 1 mL of PBS and the sample was incubated at 37° C. for 2 hrs. Similarly for preparing Tau-275 (275-305) (Repeat 2 domain) 1 mg of the peptide was suspended in 1 mL of PBS and the sample was incubated at 37° C. for 2 hrs. After incubation, all the samples were centrifuged for 5 min. at 5000 rpm to remove precipitate, if any, and the supernatant containing oligomers/aggregates were used for in vitro amyloid plaque particles formation assay. For detecting Tau plaque particles, Thioflavin S (Ex/Em=430 nm/550 nm) amyloid binding fluorescent dye (10 μg) was used in the assay.
Next, to isolate Tau plaque particles, as performed for Abeta-42 and Abeta-28 plaque particles isolation, diluted serum samples were used for incubation separately with Tau-45, Tau-74 and Tau-275 oligomers/aggregates. Each assay was performed in 1 mL reaction (800 μL of 50% plasma or serum) and 200 μL (30 μg) of each Tau aggregates and the mixtures were incubated at 37° C. for 1 hr. To the each mixture Thioflavin S dye (120 μg) was added and the sample was incubated for additional 30 min at 37° C. After the incubation, each sample was directly used for sample acquisition using flow cytometer (FACS ARIA II, BD Biosciences, San Jose, Calif.). After initial detection of Tau plaque particles, gates were drawn in the acquisition blot to separately sort and isolate fluorescently labeled Tau plaque particles.
as §1, §2

B1: Alpha-1-acid glycoprotein 2 (protein)
chain: QIPLCANLVPVPITNATLDRITGKWFYIASAFRNEEYNKSVQEIQATFFYFTPNKTEDTIFLREYQTRQNQCFYNSSYLNVQRENGTVSRYEGGREHVAHLLFLRDTKTLMFGSYLDDEKNWGLSFYADKPETTKEQLGEFYEALDCLCIPRSDVMYTDWKKDKCEPLEKQHEKERKQEEGES
In the case of B1, in test [1], the “Semi-quantitative analysis of proteins binding to different plaque particles: Synuclein” value is 10. In addition, the “Semi-quantitative analysis of proteins binding to different plaque particles: Abeta-42” value in test [2] came to 9. The “Semi-quantitative analysis of proteins binding to different plaque particles: Chl small” value in test [3] was determined as 7. The “Semi-quantitative analysis of proteins binding to different plaque particles: Chl Large” value in test [4] is given as 5. Also, the “Semi-quantitative analysis of proteins binding to different plaque particles: Tau” value in the test on Tau plaque particles is reported as 9.

B2: Alpha-2-antiplasmin (protein)
chain: NQEQVSPLTLLKLGNQEPGGQTALKSPPGVCSRDPTPEQTHRLARAMMAFTADLFSLVAQTSTCPNLILSPLSVALALSHLALGAQNHTLQRLQQVLHAGSGPCLPHLLSRLCQDLGPGAFRLAARMYLQKGFPIKEDFLEQSEQLFGAKPVSLTGKQEDDLANINQWVKEATEGKIQEFLSGLPEDTVLLLLNAIHFQGFWRNKFDPSLTQRDSFHLDEQFTVPVEMMQARTYPLRWFLLEQPEIQVAHFPFKNNMSFVVLVPTHFEWNVSQVLANLSWDTLHPPLVWERPTKVRLPKLYLKHQMDLVATLSQLGLQELFQAPDLRGISEQSLVVSGVQHQSTLELSEVGVEAAAATSIAMSRMSLSSFSVNRPFLFFIFEDTTGLPLFVGSVRNPNPSAPRELKEQQDSPGNKDFLQSLKGFPRGDKLFGPDLKLVPPMEEDYPQFGSPK
Take B2: in test [1], the “Semi-quantitative analysis of proteins binding to different plaque particles: Synuclein” value stood at 5. Moreover, in test [2], the “Semi-quantitative analysis of proteins binding to different plaque particles: Abeta-42” value was 0. Besides, the “Semi-quantitative analysis of proteins binding to different plaque particles: Chl small” value in test [3] turned out to be 3. Also, the “Semi-quantitative analysis of proteins binding to different plaque particles: Chl Large” value in test [4] stood at 6. Besides, the “Semi-quantitative analysis of proteins binding to different plaque particles: Tau” value in the test with Tau plaque particles stood at 5.

B3: Protein AMBP (protein)
chain: GPVPTPPDNIQVQENFNISRIYGKWYNLAIGSTCPWLKKIMDRMTVSTLVLGEGATEAEISMTSTRWRKGVCEETSGAYEKTDTDGKFLYHKSKWNITMESYVVHTNYDEYAIFLTKKFSRHHGPTITAKLYGRAPQLRETLLQDFRVVAQGVGIPEDSIFTMADRGECVPGEQEPEPILIPRVRRAVLPQEEEGSGGGQLVTEVTKKEDSCQLGYSAGPCMGMTSRYFYNGTSMACETFQYGGCMGNGNNFVTEKECLQTCRTVAACNLPIVRGPCRAFIQLWAFDAVKGKCVLFPYGGCQGNGNKFYSEKECREYCGVPGDGDEELLRFSN
With B3, the “Semi-quantitative analysis of proteins binding to different plaque particles: Synuclein” value in test [1] is listed as 5. Further, in test [2], the “Semi-quantitative analysis of proteins binding to different plaque particles: Abeta-42” value came out at 5. Also, the “Semi-quantitative analysis of proteins binding to different plaque particles: Chl small” value in test [3] amounted to 5. Also, the “Semi-quantitative analysis of proteins binding to different plaque particles: Chl Large” value in test [4] is 5. Further, in the test with Tau plaque particles, the “Semi-quantitative analysis of proteins binding to different plaque particles: Tau” value is reported as 10.

B4: Zinc-alpha-2-glycoprotein (protein)
chain: QENQDGRYSLTYIYTGLSKHVEDVPAFQALGSLNDLQFFRYNSKDRKSQPMGLWRQVEGMEDWKQDSQLQKAREDIFMETLKDIVEYYNDSNGSHVLQGRFGCEIENNRSSGAFWKYYYDGKDYIEFNKEIPAWVPFDPAAQITKQKWEAEPVYVQRAKAYLEEECPATLRKYLKYSKNILDRQDPPSVVVTSHQAPGEKKKLKCLAYDFYPGKIDVHWTRAGEVQEPELRGDVLHNGNGTYQSWVVVAVPPQDTAPYSCHVQHSSLAQPLVVPWEAS
Consider B4, for which the “Semi-quantitative analysis of proteins binding to different plaque particles: Synuclein” value in test [1] is reported as 7. Besides, the “Semi-quantitative analysis of proteins binding to different plaque particles: Abeta-42” value in test [2] stood at 5. In addition, in test [3], the “Semi-quantitative analysis of proteins binding to different plaque particles: Chl small” value was 5. The “Semi-quantitative analysis of proteins binding to different plaque particles: Chl Large” value in test [4] is given as 4. Also, in the test with Tau plaque particles, the “Semi-quantitative analysis of proteins binding to different plaque particles: Tau” value came to 4.
